Experiments:
VEGF = assay: Serial free VEGF levels in patients on HD IL-2; format: in vivo, human; conditions: four patients, single bevacizumab infusion two weeks prior to HD IL-2
Description: Over a 6 month period at Beth Israel Deaconess Medical Center we prospectively collected discarded serum and plasma samples from oncology patients receiving high dose IL-2. […] After detailing these promising results, we then collected bloods before IL-2 infusion and with each successive days morning labs. Whenever possible, we also obtained discarded blood from all follow up outpatient appointments. All identifying information was removed and data was encoded to protect patient privacy. Clinical data was collected on each patient by chart review. This study was approved by the institutional IRB.

p190RhoGAP [1] = assay: siRNA knockdown of p190RhoGAP in HMVEC-L (immunoblot); format: cell-based, human
Description: (§1) [A] is abluminal concentration; t is time in seconds; A is area of membrane in cm^2; V is volume of abluminal chamber; and [L] is luminal concentration. siRNA Transfection: HMVEC-Ls were seeded and control small interfering RNA (siRNA) (Ambion, Ausin, Tex.) or siRNA directed to human p190RhoGAP (5′-[…]-3′ SEQ ID NO: 5 and 5′-[…]-3′ SEQ ID NO: 6) was transfected using SilentFect Lipid reagent (Bio-Rad) according to the manufacturer's instructions. The cells were used for each experiment 3 days after transfection. Almost 90-100% cells were transfected with siRNA (checked by fluorescent labeled siRNA). Down-regulation of p190RhoGAP was verified by immunoblotting. We tested two different siRNA for the experiment and obtained similar results.

[2] = test system: mice (female FVB strain), lung; assay: In vivo permeability assay (Evans blue, LPS); set-up: species or system mouse; conditions: p190RhoGAP siRNA, endotoxin plus Ang-1
Description: Mice (8-12 weeks old, female FVB strain) were pretreated with Ang-1 (10 mcg, ip). 8 hours after the first Ang-1 injection, the second dose of Ang-1 (10 mcg, ip) and LPS (100 μg, ip) were co-injected. Lung permeability was assessed 16 hours after the second injection. Mice were anesthetized with Avertin (2,2,2-Tribromoethanol) and 2% Evans blue (50 μl) was then injected into the retro-orbital sinus. Ten minutes after Evans blue injection, mice were sacrificed and perfused with PBS with 2 mM EDTA for 10 minutes through a cannula placed in the right ventricle. […] Organs were then harvested and homogenized in 1.5 nil formamide. Evans blue was extracted by incubating the samples at 70° C. for 24 hours, and the concentration of Evans blue was estimated by dual-wavelength spectrophotometer (620 and 740 nm). The following formula was used to correct optical densities (E) for contamination with heme pigments: E620 (corrected)=E620−(1.426XE740+0.030).

HMVEC-L monolayer = assay: Measurement of endothelial permeability in vitro (FITC-albumin); format: cell-based, human; conditions: p190RhoGAP siRNA
Description: (§2) Coster Transwell membranes (Corning Inc. Corning, N.Y.) were coated with 0.5% Gelatin and cells were grown until confluence. Vehicle or proteins with FITC-albumin (1 mg/ml) was added to the luminal chamber for 4 hours, and samples were taken from both the luminal and abluminal chamber for fluorometry analysis. The readings were converted with the use of a standard curve to albumin concentration. These concentrations were then used in the following equation to determine the permeability coefficient of albumin (Pa).
as §1

RhoA [3] = assay: Rho activity assay (pull-down) in HMVEC-L; format: cell-based, human; conditions: p190RhoGAP siRNA
Description: (§3) These were performed and quantified using the commercially available kit according to the manufacturer's instruction (Cytoskeleton, Denver, Colo.). After signal starvation, HMVEC-L were treated with vehicle, Ang-1 (100 ng/ml) with or without inhibitor for the indicated time and harvested with lysis buffer. Following a brief centrifugation to remove cell debris, lysates from the cells containing equivalent protein concentrations were incubated for 60 minutes with 40 μL slurry of a GST-fusion protein composed of Rac1 or RhoA effector proteins coupled to agarose beads. After washing with lysis buffer, samples were subjected to immunoblotting and detected with anti-Rac1 or anti-RhoA antibody (Santa Cruz Biotechnology, Santa Cruz, Calif.). Whole cell lysates were also run to determine the total amount of Rac1 or RhoA protein.

p190RhoGAP [4] = assay: In vivo delivery of siRNA, p190RhoGAP in mouse lung (Western); conditions: 10 μg siRNA, hydrodynamic tail vein delivery
Description: Mice were treated as above and lungs were harvested, fixed in 10% formalin, embedded in paraffin, sectioned, and stained with hematoxilin and eosin. In Vivo Delivery of siRNA: Delivery of siRNA into mice was performed by TransIT® Hydrodynamic delivery solution (Mires, Madision, Wis.) per the manufacturer's instruction. Mice were injected with either 10 μg control siRNA or 10 μg p190RhoGAP siRNA in 2 nil delivery solution injected into the tail vein over 7 seconds. Four days later, p190RhoGAP knockdown was confirmed by lysing organs in RIPA buffer and performing Western analysis as outlined above. In vivo permeability and histological examination were performed as described above.

Rac1 = Rac1 activity assay (pull-down); format: cell-based, human; conditions: p190RhoGAP siRNA
Description: as §3

HMVEC monolayer = assay: FITC-albumin permeability assay; format: cell-based, human; conditions: Ang-2 400 ng/ml, 8 hours
Description: as §2, with “HMVEC monolayer permeability was determined with the use of FITC-labeled bovine serum albumin (Sigma) as described elsewhere (Tinsley et al., Am. J. Physiol Cell Physiol. 279: C1285-1289 (2000)). Coster” for “Coster”, “fibronectin” for “0.5% Gelatin”, “Ang-2 (400 ng/ml)” for “proteins”, “(final 1” for “(1”, “8” for “4”
where [A] is abluminal concentration; t is time in seconds; A is area of membrane in cm2; V is volume of abluminal chamber; and [L] is luminal concentration. siRNA transfection of endothelial cells: HMVECs were seeded on 10 cm dishes for Western blot (or on 1% gelatin-coated coverslips for immunohistochemistry experiments) 24 hour before experiments. […] of validated, annealed small interfering RNA (siRNA) (Ambion, Inc. Austin Tex.) directed to human Tie-2 was transfected using silentFect Lipid reagent (Bio-Rad) according to manufacturer's instructions. Three days after transfection, cells were used for experiments. […]

healthy adult mice [5] = assay: Evans blue permeability assay after systemic Ang-2; format: in vivo, mouse; conditions: Ang-2 10 μg i.p., 16 hours
Description: Mice were injected with 10 μg of Ang-2 or vehicle intraperitoneal (i.p.) and, after 16 hours, were anesthetized with Avertin (2,2,2-tribromoethanol). 2% Evans blue (50 μl) was then injected into the retro-orbital sinus. (In preliminary experiments with control mice, n=6, we confirmed that the retro-orbital sinus provided a route of intravascular injection that allowed near-100% delivery of Evans blue in a reproducible fashion.) 10 minutes after Evans blue injection, mice were sacrificed and perfused with PBS for 10 minutes through a cannula placed in the right ventricle. Blood and PBS were vented through an incision in the vena cava. […] Washout of intravascular contents was also confirmed histologically after 10 minutes PBS perfusion. After homogenization in 1.5 ml formamide, Evans blue was extracted by incubating the samples at 70° C. for 24 hours, and the concentration of Evans blue was estimated by dual-wavelength spectroscopy to correct for heme E620 nm (corrected)=E620 nm−(1.426*E740 nm+0.030).

Tie-2 = Tie-2 phosphorylation (immunoprecipitation and Western blot); format: cell-based, human; conditions: HMVECs stimulated with Ang-2 100 ng/ml
Description: 200 μg of total protein were incubated with anti-Tie2 antibody for 3 hours, followed by incubation with protein A sepharose (Zymed, San Francisco, Calif.) for 2 hours at 4° C. After washing the beads, proteins were eluted by heating in SDS-sample buffer and detected by Western blot analysis with Anti-phospho-tyrosine (clone 4G10, Upstate Cell Signaling Solutions) as described before.

[6] = test system: myosin light chain (MLC) phosphorylation in HMVECs; assay: MLC phosphorylation assay (Western blot); format: cell-based, human; conditions: Ang-2 100 ng/ml, serum-starved HMVECs
Description: After signal starvation with 0.25% FBS EBM-2 for 24 h, cells were treated with 100 ng/ml Ang-2 or vehicle for 0, 1, 3, and 6 hours. Phosphorylated myosin light chain (MLC-p) (phospho-serine 19) and GAPDH were detected by Western blot analysis. For human subject serum effects on HMVECs, serum was diluted to 5% with EBM-2 and filtered with low protein binding PVDF membrane (0.22 μm, Millipore Corp, Bedford, Mass.). Anti-MLC-phospho-serine-19 Ab was obtained from Abcam Inc.

HMVEC monolayers = assay: Immunofluorescence of endothelial architecture (F-actin, VE-cadherin); format: cell-based, human; conditions: recombinant human Ang-2 100 ng/ml alone, HMVECs
Description: HMVEC were grown to confluence on glass coverslips coated with 1% gelatin. The cells were fixed for 10 minutes in 4% paraformaldehyde in PBS, incubated for 5 min in 0.5% Triton X-100 in PBS. After blocking, the monolayers were processed for staining with anti-VE-cadherin monoclonal antibody (BD Pharmingen, San Diego, Calif.) and Alexa Fluoro 488 goat anti-mouse IgG, rhodamine phalloidin (Molecular Probe, Eugene, Oreg.) for F-actin staining and TOPRO-3-iodine (Molecular Probe) for nuclear staining. Fluorescence images were obtained using a Bio Rad MRC confocal fluorescence microscope. For human subject serum experiments, serum was diluted to 10% with EBM-2 and filtered with low protein binding PVDF membrane (0.22 μm, Millipore Corp) prior to application on endothelial cell monolayers.

RhoA [7] = assay: Rho activity pull-down assay; format: cell-based, human; conditions: Ang-2 100 ng/ml
Description: RhoA activity assay was performed and quantified using the RhoA activation assay kit according to the manufacturer's instruction (Cytoskeleton, Denver, Colo.). Lysates from control and Ang-2-treated cells containing equivalent protein concentrations were rotated for 60 minutes with 40 μl slurry of a GST-fusion protein composed of the Rho-binding domain of the specific RhoA effector rhotekin coupled to agarose beads. Beads were collected by centrifugation and washed three times with lysis buffer. Whole cell lysates from both control and Ang-2-treated cells were also run to determine baseline levels of total RhoA protein. Separated proteins were transferred to PVDF and immunoblotted with a monoclonal antibody to RhoA (Santa Cruz Biotechnology, Santa Cruz, Calif.).

healthy adult mice [8] = assay: Lung histology after systemic Ang-2; format: in vivo, mouse; conditions: 3 hour after systemic Ang-2 administration
Description: Lungs were harvested, fixed in 10% formalin, embedded in paraffin, sectioned, and stained with hematoxylin and eosin.

healthy adult mice [9] = assay: Lung wet-to-dry weight ratio; format: in vivo, mouse; conditions: Ang-2 treatment for 16 hours
Description: Lung wet weight (W) was determined immediately after removal of the right lung. Lung dry weight (D) was determined after the lung had been dried in an oven at 50° C. for 24 hours. The W/D ratio was calculated by dividing the wet weight by the dry weight.

For “bevacizumab: a neutralizing antibody to VEGF”, the “free VEGF levels” value (VEGF) was “low throughout protocol”.

With “p190RhoGAP siRNA: siRNA directed to human p190RhoGAP (SEQ ID NO: 5 and 6) (chain 1 GGAUUGUGUGGAAUGUAAG; chain 2 CUUACAUUCCACACAAUCC; listed as RNA, chemistry not given here) [reference compound]” the “block of p190RhoGAP expression” value (p190RhoGAP [1]) was 90%, the “effect on protection by Ang-1 in the lung” value [2] was “sufficient to block the protective effect of Ang-1” and the “effect on basal permeability” value (HMVEC-L monolayer) was “little effect”. For the same molecule, the “effect on rescue by Ang-1” value (HMVEC-L monolayer; endotoxin plus Ang-1) was “prevent the rescue effect of Ang-1”, the “effect on Ang-1-induced RhoA inhibition” value (RhoA [3]) was “abolish” and the “p190RhoGAP expression in lung tissue” value (p190RhoGAP [4]) was “diminished p190RHoGAP expression”. For the same molecule, the “effect on Ang-1-induced Rac1 activation” value (Rac1) was “did not affect”.

B1: Ang-2: Human recombinant angiopoietin-2 purchased from R&D systems; Tie-2 ligand (protein, listed as Homo sapiens)
chain: MWQIVFFTLSCDLVLAAAYNNFRKSMDSIGKKQYQVQHGSCSYTFLLPEMDNCRSSSSPYVSNAVQRDAPLEYDDSVQRLQVLENIMENNTQWLMKLENYIQDNMKKEMVEIQQNAVQNQTAVMIEIGTNLLNQTAEQTRKLTDVEAQVLNQTTRLELQLLEHSLSTNKLEKQILDQTSEINKLQDKNSFLEKKVLAMEDKHIIQLQSIKEEKDQLQVLVSKQNSIIEELEKKIVTATVNNSVLQKQQHDLMETVNNLLTMMSTSNSAKDPTVAKEEQISFRDCAEVFKSGHTTNGIYTLTFPNSTEEIKAYCDMEAGGGGWTIIQRREDGSVDFQRTWKEYKVGFGNPSGEYWLGNEFVSQLTNQQRYVLKIHLKDWEGNEAYSLYEHFYLSSEELNYRIHLKGLTGTAGKISSISQPGNDFSTKDGDNDKCICKCSQMLTGGWWFDACGPSNLNGMYYPQRQNTNKFNGIKWYYWKGSGYSLKATTMMIRPADF
For B1, the “increase in permeability (Pa of FITC-albumin) compared with control” value (HMVEC monolayer) was “approximately 20%”, the “extravasated Evans blue in intestines versus vehicle” value (healthy adult mice [5]) was “trend toward increased permeability” and the “extravasated Evans blue in livers versus vehicle” value (healthy adult mice [5]) was “twofold increase”. The “extravasated Evans blue in lungs versus vehicle” value (healthy adult mice [5]) was “threefold increase”, the “effect on Tie-2 phosphorylation” value (Tie-2) was “inhibitory effect” and the “MLC phosphorylation on stimulation with Ang-2 alone” value [6] was “elevated at 3 hours and 6 hours”. The “actin stress fibers and intercellular gaps” value (HMVEC monolayers) was “induced the formation of thick actin stress fibers and intercellular gaps”, the “active form of RhoA (Rho-GTP)” value (RhoA [7]) was “increased the active form of RhoA” and the “time of peak Rho-GTP” value (RhoA [7]) was “peaking between 30 minutes and 1 hour”. For the same molecule, the lung histology (healthy adult mice [8]) was “increase in congestion and early extravasation into the interstitium” and the “lung wet/dry weight (W/D) ratio” value (healthy adult mice [9]) was 6.13±0.03.

From patent US20130252821A1, “METHODS AND COMPOSITIONS FOR THE TREATMENT AND DIAGNOSIS OF DISEASES CHARACTERIZED BY VASCULAR LEAK, HYPOTENSION, OR A PROCOAGULANT STATE” (Beth Israel Deaconess Medical Center, Inc., priority 2005, published 2013)
